Kd, koff and kon data for 14 molecules are collected here from patent US20100260668A1 (published 2010).

B1: DVD451 (bispecific antibody, human IgG1, kappa, L234A L235A)
heavy: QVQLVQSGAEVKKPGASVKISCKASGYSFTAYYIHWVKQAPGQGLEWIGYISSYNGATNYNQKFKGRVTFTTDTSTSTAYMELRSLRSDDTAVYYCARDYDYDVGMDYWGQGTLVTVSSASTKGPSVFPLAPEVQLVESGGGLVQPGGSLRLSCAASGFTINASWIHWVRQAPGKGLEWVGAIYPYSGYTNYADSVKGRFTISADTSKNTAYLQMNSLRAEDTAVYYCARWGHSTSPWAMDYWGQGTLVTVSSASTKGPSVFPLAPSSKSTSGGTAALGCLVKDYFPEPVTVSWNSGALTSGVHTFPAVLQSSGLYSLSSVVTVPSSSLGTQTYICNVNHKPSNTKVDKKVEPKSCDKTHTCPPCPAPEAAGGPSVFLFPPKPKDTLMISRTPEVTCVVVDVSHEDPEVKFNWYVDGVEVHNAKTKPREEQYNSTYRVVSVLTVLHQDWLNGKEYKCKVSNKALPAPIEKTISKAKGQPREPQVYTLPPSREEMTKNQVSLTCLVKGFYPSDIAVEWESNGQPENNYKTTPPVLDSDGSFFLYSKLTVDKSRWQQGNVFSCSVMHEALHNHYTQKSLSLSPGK
light: DIVMTQSPDSLAVSLGERATISCRASESVDNYGISFMKWFQQKPGQPPKLLIYAASNQGSGVPDRFSGSGSGTDFTLTISSLQAEDVAVYYCQQSKEVPWTFGGGTKVEIKRTVAAPSVFIFPPDIQMTQSPSSLSASVGDRVTITCRASQVIRRSLAWYQQKPGKAPKLLIYAASNLASGVPSRFSGSGSGTDFTLTISSLQPEDFATYYCQQSNTSPLTFGQGTKVEIKRTVAAPSVFIFPPSDEQLKSGTASVVCLLNNFYPREAKVQWKVDNALQSGNSQESVTEQDSKDSTYSLSSTLTLSKADYEKHKVYACEVTHQGLSSPVTKSFNRGEC
notes: DVD-Ig; N-term; VD DLL4 (AB069), C-term; VD VEGF (AB071); HC linker long, LC linker long; also called DVD-Ig DVD451; DVD451H
B2: DVD463 (bispecific antibody, human IgG1, kappa)
heavy: not shown
light: B1 light
notes: DVD-Ig; N-term; VD DLL4 (AB069), C-term; VD VEGF (AB071); HC linker short, LC linker long; also called DVD-Ig DVD463; DVD463H
B3: DVD521 (bispecific antibody, human IgG1, kappa, lambda, L234A L235A)
heavy: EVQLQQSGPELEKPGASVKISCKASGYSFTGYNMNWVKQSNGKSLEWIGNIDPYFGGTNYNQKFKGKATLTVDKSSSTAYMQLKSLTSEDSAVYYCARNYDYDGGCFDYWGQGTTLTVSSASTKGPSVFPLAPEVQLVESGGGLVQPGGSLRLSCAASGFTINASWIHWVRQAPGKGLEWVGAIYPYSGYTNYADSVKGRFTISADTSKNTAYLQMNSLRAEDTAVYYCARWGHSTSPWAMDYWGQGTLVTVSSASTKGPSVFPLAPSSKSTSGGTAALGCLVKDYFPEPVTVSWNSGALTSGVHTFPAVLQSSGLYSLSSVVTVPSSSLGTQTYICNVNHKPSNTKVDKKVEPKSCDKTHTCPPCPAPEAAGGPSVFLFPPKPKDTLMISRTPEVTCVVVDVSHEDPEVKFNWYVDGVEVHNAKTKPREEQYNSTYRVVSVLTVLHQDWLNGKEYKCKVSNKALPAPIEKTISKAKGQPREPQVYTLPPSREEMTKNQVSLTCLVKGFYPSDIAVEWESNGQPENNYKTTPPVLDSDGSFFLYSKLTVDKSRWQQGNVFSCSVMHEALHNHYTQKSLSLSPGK
light: QAVVTQESALTTSPGETVTLTCRSSTGAVTTSNYANWVQEKPDHLFTGLIGGTNNRAPGVPARFSGSLIGDKAALTITGAQTEDEAIYFCALWYSNHWVFGGGTKLTVLGQPKAAPSVTLFPPDIQMTQSPSSLSASVGDRVTITCRASQVIRRSLAWYQQKPGKAPKLLIYAASNLASGVPSRFSGSGSGTDFTLTISSLQPEDFATYYCQQSNTSPLTFGQGTKVEIKRTVAAPSVFIFPPSDEQLKSGTASVVCLLNNFYPREAKVQWKVDNALQSGNSQESVTEQDSKDSTYSLSSTLTLSKADYEKHKVYACEVTHQGLSSPVTKSFNRGEC
notes: DVD-Ig; N-term; VD DLL4 (AB073), C-term; VD VEGF (AB071); HC linker long, LC linker long; also called DVD-Ig DVD521; DVD521H
B4: DVD533 (bispecific antibody, human IgG1, kappa, lambda, L234A L235A)
heavy: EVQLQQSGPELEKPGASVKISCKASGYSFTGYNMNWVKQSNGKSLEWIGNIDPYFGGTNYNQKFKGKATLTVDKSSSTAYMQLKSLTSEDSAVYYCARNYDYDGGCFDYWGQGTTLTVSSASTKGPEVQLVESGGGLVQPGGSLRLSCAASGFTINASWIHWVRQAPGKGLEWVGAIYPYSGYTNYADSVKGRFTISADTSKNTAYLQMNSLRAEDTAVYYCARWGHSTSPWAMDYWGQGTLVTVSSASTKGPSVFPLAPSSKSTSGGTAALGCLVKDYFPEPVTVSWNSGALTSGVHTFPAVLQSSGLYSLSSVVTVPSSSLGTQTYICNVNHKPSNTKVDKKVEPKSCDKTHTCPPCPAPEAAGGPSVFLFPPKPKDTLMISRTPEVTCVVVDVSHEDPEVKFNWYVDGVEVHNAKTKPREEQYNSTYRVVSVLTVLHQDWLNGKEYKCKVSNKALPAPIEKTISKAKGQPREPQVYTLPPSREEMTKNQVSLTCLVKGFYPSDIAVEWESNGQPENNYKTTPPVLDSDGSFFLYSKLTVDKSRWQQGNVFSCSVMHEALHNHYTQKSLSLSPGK
light: B3 light
notes: DVD-Ig; N-term; VD DLL4 (AB073), C-term; VD VEGF (AB071); HC linker short, LC linker long; also called DVD-Ig DVD533; DVD533H
B5: DVD467 (bispecific antibody, human IgG1, kappa)
heavy: not shown
light: DIQMTQSPSSLSASVGDRVTITCRASQDVSTAVAWYQQKPGKAPKLLIYSASFLYSGVPSRFSGSGSGTDFTLTISSLQPEDFATTYYCQQSYTGTVTFGQGTKVEIKRTVAAPDIQMTQSPSSLSASVGDRVTITCRASQVIRRSLAWYQQKPGKAPKLLIYAASNLASGVPSRFSGSGSGTDFTLTISSLQPEDFATYYCQQSNTSPLTFGQGTKVEIKRTVAAPSVFIFPPSDEQLKSGTASVVCLLNNFYPREAKVQWKVDNALQSGNSQESVTEQDSKDSTYSLSSTLTLSKADYEKHKVYACEVTHQGLSSPVTKSFNRGEC
notes: DVD-Ig; N-term; VD DLL4 (AB015), C-term; VD VEGF (AB071); HC linker short, LC linker short; 2'; 3'; also called DVD-Ig DVD467; DVD467H
B6: DVD479 (bispecific antibody, human IgG1, kappa)
heavy: not shown
light: B5 light
notes: DVD-Ig; N-term; VD DLL4 (AB015), C-term; VD VEGF (AB071); HC linker long, LC linker short; also called DVD-Ig DVD479; DVD479H
B7: DVD473 (bispecific antibody, human IgG1, kappa)
heavy: not shown
light: DIQMTQSPSSLSASVGDRVTITCRASQDVSTAVAWYQQKPGKAPKLLIYSASFLYSGVPSRFSGSGSGTDFTLTISSLQPEDFATTYYCQQSYTGTVTFGQGTKVEIKRTVAAPSVFIFPPDIQMTQSPSSLSASVGDRVTITCRASQVIRRSLAWYQQKPGKAPKLLIYAASNLASGVPSRFSGSGSGTDFTLTISSLQPEDFATYYCQQSNTSPLTFGQGTKVEIKRTVAAPSVFIFPPSDEQLKSGTASVVCLLNNFYPREAKVQWKVDNALQSGNSQESVTEQDSKDSTYSLSSTLTLSKADYEKHKVYACEVTHQGLSSPVTKSFNRGEC
notes: DVD-Ig; N-term; VD DLL4 (AB015), C-term; VD VEGF (AB071); HC linker long, LC linker long; also called DVD-Ig DVD473; DVD473H
B8: DVD485 (bispecific antibody, human IgG1, kappa)
heavy: not shown
light: B7 light
notes: DVD-Ig; N-term; VD DLL4 (AB015), C-term; VD VEGF (AB071); HC linker short, LC linker long; also called DVD-Ig DVD485; DVD485H
B9: DVD515 (bispecific antibody, human IgG1, kappa)
heavy: not shown
light: QAVVTQESALTTSPGETVTLTCRSSTGAVTTSNYANWVQEKPDHLFTGLIGGTNNRAPGVPARFSGSLIGDKAALTITGAQTEDEAIYFCALWYSNHWVFGGGTKLTVLGQPKAAPDIQMTQSPSSLSASVGDRVTITCRASQVIRRSLAWYQQKPGKAPKLLIYAASNLASGVPSRFSGSGSGTDFTLTISSLQPEDFATYYCQQSNTSPLTFGQGTKVEIKRTVAAPSVFIFPPSDEQLKSGTASVVCLLNNFYPREAKVQWKVDNALQSGNSQESVTEQDSKDSTYSLSSTLTLSKADYEKHKVYACEVTHQGLSSPVTKSFNRGEC
notes: DVD-Ig; N-term; VD DLL4 (AB073), C-term; VD VEGF (AB071); HC linker short, LC linker short; also called DVD-Ig DVD515; DVD515H
B10: DVD527 (bispecific antibody, human IgG1, kappa)
heavy: not shown
light: B9 light
notes: DVD-Ig; N-term; VD DLL4 (AB073), C-term; VD VEGF (AB071); HC linker long, LC linker short; also called DVD-Ig DVD527; DVD527H
B11: DVD445 (bispecific antibody, human IgG1, kappa)
heavy: not shown
light: DIVMTQSPDSLAVSLGERATISCRASESVDNYGISFMKWFQQKPGQPPKLLIYAASNQGSGVPDRFSGSGSGTDFTLTISSLQAEDVAVYYCQQSKEVPWTFGGGTKVEIKRTVAAPDIQMTQSPSSLSASVGDRVTITCRASQVIRRSLAWYQQKPGKAPKLLIYAASNLASGVPSRFSGSGSGTDFTLTISSLQPEDFATYYCQQSNTSPLTFGQGTKVEIKRTVAAPSVFIFPPSDEQLKSGTASVVCLLNNFYPREAKVQWKVDNALQSGNSQESVTEQDSKDSTYSLSSTLTLSKADYEKHKVYACEVTHQGLSSPVTKSFNRGEC
notes: DVD-Ig; N-term; VD DLL4 (AB069), C-term; VD VEGF (AB071); HC linker short, LC linker short; also called DVD-Ig DVD445; DVD445H
B12: DVD457 (bispecific antibody, human IgG1, kappa, L234A L235A)
heavy: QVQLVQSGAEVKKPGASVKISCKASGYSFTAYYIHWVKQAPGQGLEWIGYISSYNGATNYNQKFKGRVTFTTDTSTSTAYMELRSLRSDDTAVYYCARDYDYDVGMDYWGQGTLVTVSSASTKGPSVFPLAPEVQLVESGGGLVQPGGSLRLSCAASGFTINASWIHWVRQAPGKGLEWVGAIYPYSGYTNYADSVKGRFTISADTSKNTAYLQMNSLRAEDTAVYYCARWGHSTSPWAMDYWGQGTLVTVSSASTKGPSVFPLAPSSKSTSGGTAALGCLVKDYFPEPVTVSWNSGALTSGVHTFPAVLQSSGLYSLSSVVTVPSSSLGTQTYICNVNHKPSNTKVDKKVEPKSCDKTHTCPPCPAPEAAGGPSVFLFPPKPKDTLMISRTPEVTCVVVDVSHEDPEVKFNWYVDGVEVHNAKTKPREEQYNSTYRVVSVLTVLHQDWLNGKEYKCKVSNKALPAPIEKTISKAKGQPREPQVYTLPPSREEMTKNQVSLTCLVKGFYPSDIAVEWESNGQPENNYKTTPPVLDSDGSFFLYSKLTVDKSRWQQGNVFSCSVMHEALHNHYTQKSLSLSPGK
light: B11 light
notes: DVD-Ig; N-term; VD DLL4 (AB069), C-term; VD VEGF (AB071); HC linker long, LC linker short; also called DVD-Ig DVD457; DVD457H
B13: DVD491 (bispecific antibody, human IgG1, kappa)
heavy: not shown
light: DIQMTQSSSYLSVSLGGRVTITCKASDHINNWLAWYQQKPGNAPRLLISGATSLETGVPSRFSGSGSGKDYTLSITSLQTEDVATYYCQQYWSIPLTFGAGTKLELKRTVAAPDIQMTQSPSSLSASVGDRVTITCRASQVIRRSLAWYQQKPGKAPKLLIYAASNLASGVPSRFSGSGSGTDFTLTISSLQPEDFATYYCQQSNTSPLTFGQGTKVEIKRTVAAPSVFIFPPSDEQLKSGTASVVCLLNNFYPREAKVQWKVDNALQSGNSQESVTEQDSKDSTYSLSSTLTLSKADYEKHKVYACEVTHQGLSSPVTKSFNRGEC
notes: DVD-Ig; N-term; VD DLL4 (AB072), C-term; VD VEGF (AB071); HC linker short, LC linker short; also called DVD-Ig DVD491; DVD491H
B14: DVD497 (bispecific antibody, human IgG1, kappa)
heavy: not shown
light: DIQMTQSSSYLSVSLGGRVTITCKASDHINNWLAWYQQKPGNAPRLLISGATSLETGVPSRFSGSGSGKDYTLSITSLQTEDVATYYCQQYWSIPLTFGAGTKLELKRTVAAPSVFIFPPDIQMTQSPSSLSASVGDRVTITCRASQVIRRSLAWYQQKPGKAPKLLIYAASNLASGVPSRFSGSGSGTDFTLTISSLQPEDFATYYCQQSNTSPLTFGQGTKVEIKRTVAAPSVFIFPPSDEQLKSGTASVVCLLNNFYPREAKVQWKVDNALQSGNSQESVTEQDSKDSTYSLSSTLTLSKADYEKHKVYACEVTHQGLSSPVTKSFNRGEC
notes: DVD-Ig; N-term; VD DLL4 (AB072), C-term; VD VEGF (AB071); HC linker long, LC linker long; also called DVD-Ig DVD497; DVD497H

This assay deals with T1, DLL4 (DLL ECD His tag, R&D 1506-D4-050) (UniProt Q9NR61 27-529).
T1 construct: extracellular domain; bought
Briefly: BIACORE (SPR), DVD-Ig against DLL4. (SPR reads the build-up and loss of mass on a sensor chip optically.)
For B1, the Kd was 14 nM, the koff came out at 0.001 s⁻¹ and the on-rate constant (kon) is 71700 M⁻¹ s⁻¹.

As for B2, binding was characterised by a dissociation constant (Kd) of 3.82 nM, the koff was 0.000472 s⁻¹ and the kon came out at 123000 M⁻¹ s⁻¹.

For the molecule B3, the Kd stood at 1.77 nM, the koff worked out at 0.00168 s⁻¹ and the kon turned out to be 947000 M⁻¹ s⁻¹.

Molecule B4 came in with a Kd of 2.22 nM, a koff of 0.00133 s⁻¹ and a kon of 598000 M⁻¹ s⁻¹.

The molecule B5 came in with a Kd of 0.302 nM, a koff of 0.000177 s⁻¹ and a kon of 585000 M⁻¹ s⁻¹.

Consider B6, for which the dissociation constant (Kd) turned out to be 0.441 nM, the koff stood at 0.000174 s⁻¹ and the kon stood at 395000 M⁻¹ s⁻¹.

As to B7, the Kd amounted to 0.716 nM, the koff stood at 0.000161 s⁻¹ and the kon amounted to 226000 M⁻¹ s⁻¹.

B8 showed a Kd of 1.16 nM.

As for B9, binding was characterised by a dissociation constant (Kd) of 1.51 nM, the koff worked out at 0.0016 s⁻¹ and the kon is 1.06e+06 M⁻¹ s⁻¹.

Molecule B10 showed a Kd of 1.9 nM, a koff of 0.00109 s⁻¹ and a kon of 574000 M⁻¹ s⁻¹.

B11 returned a Kd of 5.01 nM, a koff of 0.000646 s⁻¹ and a kon of 129000 M⁻¹ s⁻¹.

B12 came in with a Kd of 4.82 nM, a koff of 0.000578 s⁻¹ and a kon of 120000 M⁻¹ s⁻¹.

B13 came in with a Kd of 0.237 nM, a koff of 6.35e-05 s⁻¹ and a kon of 267000 M⁻¹ s⁻¹.

Consider B14, for which binding was put at a Kd of 0.266 nM, the koff is 7.12e-05 s⁻¹ and the kon turned out to be 268000 M⁻¹ s⁻¹.

As a reminder, the Kd is a measure of binding affinity in units of concentration. By koff is commonly meant the first-order rate constant of dissociation. A low value points to slow dissociation. Broadly, the kon is a measure of how fast the partners come together. Lower therefore signals slow association.
